Experimental data: the supplement of paper PMC9732359
± gives the uncertainty stated by the source.

Test: protein stability index of a GFP-peptide fusion (yeast GPS) (PSI 1-4); higher = more stable; sorted into four equal gates, so the index is relative within each strain
Settings: pdr5∆
How it was run: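 The protein stability index combines read frequencies across sorting gates, each weighted by its gate number and then summed. To obtain those frequencies, a pooled yeast library of GFP fusions to tiled 17-residue yeast protein peptides, on a plasmid also expressing Cherry, was grown to mid-log phase in leucine-free medium. The cells were sorted into four equal gates by GFP/Cherry ratio before plasmid amplification by PCR and Illumina sequencing.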

Sequence | protein stability index
RMRFPPFDDDEPPLSYE [PRP8] | 3.06 ± 0.051
RMRNRALREMRKSDQQD [POP1] | 3.63 ± 0.17
RMRVSVLEKYEVIGYIA [SSN3] | 1.56 ± 0.2
RMSYGSHDKKTKCSTVV [SRP14] | 3.07 ± 0.12
RNEQVTIELKNGTTVWG [SMD1] | 1.78 ± 0.11
RNEVLESMDFLVLADAF [YCS4] | 2.31 ± 0.086
RNFDTHENYIQDDDFPL [MCD1] | 2.8 ± 0.053
RNLQMGLRNQNMVRNNN [GRR1] | 2.72 ± 0.093
RNMIIVPEMIGSVVGIY [RPS15] | 1.42 ± 0.057
RNNFLAENSHTQPKATS [PUP1] | 3.1 ± 0.059
RNRGKIHSGVLSSIESD [YMR153W/NUP53] | 2.96 ± 0.12
RNSYPASFYSVNTEKKT [RPN3] | 3.06 ± 0.13
RNTYQSAMGKQAMGVFL [RPB2] | 1.63 ± 0.11
RPDITMYCRPAPSDFSE [GRR1] | 2.12 ± 0.15
RPKKITGWITQSTPVLL [RPN1] | 2.11 ± 0.043
RPLKLERGFACIPLVGI [FAS1] | 1.73 ± 0.048
RPPNGIKNFKSLLLSSS [SSN2] | 1.53 ± 0.047
RPPVKAILQEKILSILN [ECM29] | 1.83 ± 0.084
RQCFQDNCCDFKVRTNL [MED1] | 3.23 ± 0.063
RQDGSYTYHSTNKDNKA [ARP9] | 2.97 ± 0.067
RQEVTKFAKANIGYVMG [RPN4] | 1.31 ± 0.11
RQFSNEEVNRCYLRWQH [SNF2] | 2.78 ± 0.08
RQINKLIDSLPGVDVSA [SRB7] | 2.06 ± 0.05
RQIRPIMERIKSSLSLR [ITC1] | 1.65 ± 0.075
RQKINGCEANIHSLVKQ [YIL149C/MLP2] | 3.33 ± 0.13
RQLQYETLGDILKRDFE [ECM29] | 3.36 ± 0.099
RQRELLIAHQRSAWNNN [GRR1] | 2.24 ± 0.046

Sequence | protein stability index
RQSSDESDNYRLLPNGS [YML031W/NDC1] | 2.97 ± 0.06
RQTTSNTGLLNKANIQA [RPN11] | 3.02 ± 0.072
RRKTTKQNSSSDINQND [YDL088C/ASM4] | 3.15 ± 0.098
RRMAFKPFGSAKSDETK [YLR335W/NUP2] | 2.74 ± 0.063
RRWNKLCTLNDSKGSLY [YGL100W/SEH1] | 3.24 ± 0.072
RRYKLLTATPNSINKTT [POP1] | 2.38 ± 0.049
RSALEKGSRFISTLQVK [RPB2] | 1.23 ± 0.087
RSISEPSINLDPDNTSF [ESC2] | 3 ± 0.057
RSKFGGDFLDFQVHERL [ARP7] | 3.11 ± 0.1
RSPEEIRRTFNIVNDFT [SKP1] | 2.06 ± 0.094
RSRKTVKAQRPITGASL [RPL24A] | 3.22 ± 0.11
RSRYRREIDALKKQLHV [YIL149C/MLP2] | 3.16 ± 0.05
RTDQYTIDNIDSENFSF [YMR129W/POM152] | 2.99 ± 0.043
RTGPKALPDAVTIIEPK [RPS3] | 3.03 ± 0.066
RTKNLVSKMEKAEKTLK [SMC4] | 3.1 ± 0.056
RTMYFILDGQDVEENRS [YJR042W/NUP85] | 3.03 ± 0.089
RTPVIISLRNNHKIIAR [SMD2] | 1.97 ± 0.035
RTQPWSIMPDLYFYRDP [RPS0A] | 2.85 ± 0.056
RTVAGFSNVELPQCIIP [ARP7] | 2.76 ± 0.054
RVLQLLAVIMDNIGEID [YCG1] | 1.63 ± 0.067
RVRNKDIRKFLDGIYVS [RPL9A] | 2.07 ± 0.087
RVRVTGGGHVSQVYAIR [RPS16A] | 2.87 ± 0.045
RYQIMLPEQLKSGKFCS [SNM1] | 2.08 ± 0.09
SAAELERLDKDKDRDTR [SNF5] | 1.46 ± 0.14
SADDDVNNGNIPSQRGT [SIR3] | 3.01 ± 0.1
SAFMKFSKAIEWDMLNV [BRR2] | 1.9 ± 0.072
